experiment: soluble on expression in E. coli; label from the status in PepcDB or PDB records

Sequence	soluble on expression in E. coli
MSLNNLEKASRLIDEENNYYARSARINYYDLVINHAHGATLIDVDGNEYIDLLASASAINVGHTNERVVKAISRQAQKLIHYTPAYFHHVPGIELSKRLAELAPGNSPKMVSFGNSGSDANDAIIKFSRAYTSRQYIVSYMGSYHGSNYGSQSLSGTSLNMTRKIGPMLPGVVHVPYPDLYRRYAGETEHDVAIRYFNAFKAPFESFLPADETACVLVEPIQGDGGIVKAPEEYMQLVYKFCHDNGILFAVDEVNQGLGRTGKMWGIQQYKDIEPDLMSVGKSLASGMPLSAVVGKKDIMQSLDAPAHIFTTSGNPVCAAASLATLNVIRDDHLVEKSAKDGEYAKQRFLEMQRHHPIIGDVRMWGLNGGIELVKDPKTKEAENDAATKVIYYAFAHGVVIITLAGNILRFQPPLVISHKQLDKALQVLDDAFTAVEQNKVEVPKDTGKIGWEGHHHHHH	not soluble
MEERELVEYFRGQIREDPDVASAVAAIRSLLEFLKRDQSETILGLRENMTQAIHRLQEADPSVAVSSGGELFLRFISLTSLEHPDLSQCKNVMIERGELFLKKISLSRGKVGKLCHTFIKDGAKILTHSSSRVVLKVLENAAADNKRFTVKLMAEKLRKLSIPVTVVLDAAVGYILEKVDLVIVGAEGVVESGGVINKIGTYQMAVCSKAHNKPFYVVAESFKFVRLYPLNQQDVPDRFKYKADVLKTAEDLNQEHPLIDYTPSSLITLLFTDLGVLTPSAVSDELIKLYL	soluble
MKIVLISGLSGSGKSVALRQMEDSGYFCVDNLPLEMLPALVSYHIERADETELAVSVDVRSGIDIGQAREQIASLRRLGHRVEVLFVEAEESVLVRRFSETRRGHPLSNQDMTLLESLKKEREWLFPLKEIAYCIDTSKMNAQQLRHAVRQWLKVERTGLLVILESFGFKYGVPNNADFMFDMRSLPNPYYDPELRPYTGMDKPVWDYLDGQPLVQEMVDDIERFVTHWLPRLEDESRSYVTVAIGCTGGQHRSVYIVEKLARRLKGRYELLIRHRQAQNLSDR	not soluble
MGSSHHHHHHSSGLVPRGSTSEVIEDEKQFYSKAKTYWKQIPPTVDGMLGGYGHISSIDINSSRKFLQRFLREGPNKTGTSCALDCGAGIGRITKRLLLPLFREVDMVDITEDFLVQAKTYLGEEGKRVRNYFCCGLQDFTPEPDSYDVIWIQWVIGHLTDQHLAEFLRRCKGSLRPNGIIVIKDNMAQEGVILDDVDSSVCRDLDVVRRIICSAGLSLLAEERQENLPDEIYHVYSFALR	soluble
MVSEREQLACLVQQWNENRLDLFHLSYPTEDLEVEGVMRFYFQDGGEKVLTKCVRVSSTATTRAVVDALSEKFLPDLKMLSNDTYSLWEVHENGEERKLLDEEKPLVVQLQWHKDDREGRFLLKKDAAPPVSLLNLQEADQKNTRFAKKKDKEPKKKNQKNFVQVNGGREEAQSQDDIYKQVPFNTFTRTISNPEAVMRKRREKKLETKLKEMMFGGSLKVYGGEIVPTRPYVSILAEINENADRILGAALEKYGLEHSKDDFILVEVSNDDDRKSMSDLREIDGRPIPPTECPLFEMTARSGNGENGFDSFLAIKRKPHDYQVPSTSVVAPSSVTLPMSPLTSLPPQIHNLPVLIVMNNDGHLSTHRITLHEGVTEVGSDSQMSNFSQHNIYLDGPDIRGRHAAIAFMEGVVTLTPSTRDAYLEVNGHQLMQTEILRDGDHIRIGADHSFKFSTSSSQANQINSTNISNSNQRHFQQQTFYPEMADSRASTARCAPSDYCSLPQQNDYYPPSMSGSSVSSSRQEDLMMHSNNNILPPYSTKSAQEPLQLPLSIQIGDYNVWDFLAEVMSNRAATSSEMSTFRLSPAYSLYLALRSFHTHNKPYSVQFFSRIESNFKQIAQECSSKDDLIFWLANASEFNHLVERDTELKASRYGKISVEIERIFRRLVAVLQSVIRPAARALLDIHLNDHDATGDVIHLLDTTMRQARICGLNAALTIQLCGHLLHMVNAFVFNSLVSVNLPAAQLNTRLGKCLQYRIESIHRFCERMGVEMAAECHLDRSRQAANLLATQKNDVAALGSTCYKLNSLQVVHILSGFEPDDGEIPCDDDVVDRICRLAEKQADKLTLEDGQRVTLEESDELNLPFLIPQDGYFVEQFRTVPDGLWQYLQQLQHRRLCHTVSLTPAPPAAMTHSMHAMHIGASDAHYHQHQHQQQQNPIVRSVSQTTLTSIPTTQFGDSFGSAVSDTISKVTLRKNGGGIGLSIVAAQGVGDRQMGIYVKKVVEGTPAAHDGRLETGDQLLSVNGHSLIGISQEEFVFQ	not soluble

Reference: the DeepSol protein solubility set
